Columns and labels:
[1] = target: Recombinant mouse RANKL (residues 162-316), receptor-binding ectodomain, trimer (mouse) (UniProt O35235); assay: SPR
crystal structure = target: the molecule itself; assay: crystal structure
[2] = target: T1, Extracellular cytokine-binding domain of mouse RANK (all four CRDs, residues 1-198) (mouse, UniProt O35305 31-198); assay: SPR
T1 sequence (looked up): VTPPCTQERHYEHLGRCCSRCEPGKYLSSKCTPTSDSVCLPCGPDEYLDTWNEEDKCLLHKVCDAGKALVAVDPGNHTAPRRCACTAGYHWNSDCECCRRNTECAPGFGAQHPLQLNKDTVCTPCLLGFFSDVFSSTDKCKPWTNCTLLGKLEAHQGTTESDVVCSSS

Molecule	fold decrease in affinity against wild-type OPG CRDs [1] [fold]	fold slower on-rate than wild-type OPG CRDs [1] [fold]	stoichiometry N (crystal structure)	Kd [2] [µM]
Mouse OPG F96A CRD fragment (CRDs 1 through 4) (from UniProt O08712 22-191) (domain or fragment)	60	30	–	–
Recombinant mouse RANKL (residues 162-316), receptor-binding ectodomain, trimer (ligand, UniProt O35235-1 162-316, looked up) QPFAHLTINAASIPSGSHKVTLSSWYHDRGWAKISNMTLSNGKLRVNQDGFYYLYANICFRHHETSGSVPTDYLQLMVYVVKTSIKIPSSHNLMKGGSTKNWSGNSEFHFYSINVGGFFKLRAGEEISIQVSNPSLLDPDQDATYFGAFKVQDID	–	–	3	2.09

From paper PMC3607351 (Structure (London, England : 1993), 2012)
